Measured values as given in patent US20180291082A1.
Read-outs that look alike come from different tables or passages of the source.

Key:
Test in all cases: UV-ligand exchange, anti-b2m ELISA; exchange yield grade (+ >10%, ++ >20%, +++ >50, ++++ >75%)
HLA-B*44:02 (human) = molecular target: HLA-B*44:02 (human)
HLA-A*01:01 (human) = settings: remark: other sources report otherwise
HLA-A*03:01 (human) = molecular target: HLA-A*03:01 (human)

For AEGGKVPIKW (modifications not checked), the peptide exchange yield (HLA-B*44:02 (human)) was 50 to 75%.

With QQATPGPAY the peptide exchange yield (HLA-B*44:02 (human); remark: other sources report otherwise) was 20 to 50%.

Binder ITEKNSGLY has a peptide exchange yield (HLA-A*01:01 (human)) of 50 to 75%.

KITDFGLAK (modifications not checked) showed a peptide exchange yield (HLA-A*03:01 (human)) of 20 to 50%.
